In patent publication US20240301041A1 (Regeneron, published 2024):

Columns and labels:
[1] = biological target: T1, Protein A (purified reagent) (Staphylococcus aureus, UniProt P38507 37-477); assay: SPR (Biacore), mAb captured by anti-human Fc, Protein A injected, 37 C
T1 construct: also called Protein A (Calbiochem, 539202-5 MG); Protein A reagent

[2] = biological target: T2, IgG binding protein (Protein A homolog SpsQ/SpsP) on MRSP S. pseudintermedius 88493 (Staphylococcus pseudintermedius); assay: ELISA, coated S. pseudintermedius 88493, antibody 6.03E-10 M
T2 construct: whole, on cells; also called MRSP Staphylococcus pseudintermedius 88493 (methicillin-resistant)

[3] = biological target: T3, Protein A on the surface of S. aureus Newman wild-type (Staphylococcus aureus (strain Newman), UniProt P38507 37-477); assay: ELISA, coated S. aureus Newman, antibody 3.86E-08 M
T3 construct: whole, on cells; also called S. aureus Newman WT; wild-type S. aureus expressing Protein A

[4] = biological target: T4, IgG binding protein (Protein A homolog SpsQ/SpsP) on S. intermedius 27369 (Staphylococcus intermedius); assay: cell-based or functional assay
[5] = biological target: T3, Protein A on the surface of S. aureus …; assay: cell-based or functional assay
[6] = biological target: T5, IgG binding protein (Protein A homolog SpsQ/SpsP) on S. pseudintermedius AHDRCC 98200 (Staphylococcus pseudintermedius); assay: cell-based or functional assay
[7] = biological target: T2, IgG binding protein (Protein A homolog …); assay: ELISA, coated S. pseudintermedius 88493, antibody 1.18E-12 M
[8] = biological target: T5, IgG binding protein (Protein A homolog …); assay: ELISA, coated S. pseudintermedius 98200, antibody 4.82E-09 M
[9] = biological target: T4, IgG binding protein (Protein A homolog …); assay: ELISA, coated S. intermedius 27369, antibody 1.47E-13 M
[10] = biological target: T2, IgG binding protein (Protein A homolog …); assay: ELISA, coated S. pseudintermedius 88493, antibody 7.54E-11 M
[11] = biological target: T5, IgG binding protein (Protein A homolog …); assay: ELISA, coated S. pseudintermedius 98200, antibody 9.42E-12 M
[12] = biological target: T4, IgG binding protein (Protein A homolog …); assay: ELISA, coated S. intermedius 27369, antibody 7.54E-11 M
[13] = biological target: T5, IgG binding protein (Protein A homolog …); assay: ELISA, coated S. pseudintermedius 98200, antibody 1.47E-13 M
[14] = biological target: T3, Protein A on the surface of S. aureus …; assay: flow cytometry; blocking antibody 10 ug/mL, then Alexa-488 VH3 hIgG1*/* antibody (competitor) on wild-type S. aureus
[15] = biological target: T2, IgG binding protein (Protein A homolog …); assay: ELISA, coated S. pseudintermedius 88493, antibody 3.86E-08 M
[16] = biological target: T2, IgG binding protein (Protein A homolog …); assay: ELISA, coated S. pseudintermedius 88493, antibody 9.42E-12 M
[17] = biological target: T2, IgG binding protein (Protein A homolog …); assay: ELISA, coated S. pseudintermedius 88493, antibody 3.09E-07 M
[18] = biological target: T4, IgG binding protein (Protein A homolog …); assay: ELISA, coated S. intermedius 27369, antibody 1.18E-12 M
[19] = biological target: T4, IgG binding protein (Protein A homolog …); assay: ELISA, coated S. intermedius 27369, antibody 3.09E-07 M
[20] = biological target: T3, Protein A on the surface of S. aureus …; assay: ELISA, coated S. aureus Newman, antibody 1.18E-12 M
[21] = biological target: T4, IgG binding protein (Protein A homolog …); assay: ELISA, coated S. intermedius 27369, antibody 6.03E-10 M
[22] = biological target: T4, IgG binding protein (Protein A homolog …); assay: ELISA, coated S. intermedius 27369, antibody 4.82E-09 M
[23] = biological target: T3, Protein A on the surface of S. aureus …; assay: ELISA, coated S. aureus Newman, antibody 6.03E-10 M

B1: H1xH15140P*/* (anti-Protein A) (antibody, V domains shown)
VH: EVQLVESGGGLVQPGGSLTLSCTASGFSFSSYVMSWVRQSPGKGLEWVSAIGGSGTSTYYRDSVKGRFTISRDNSKNTLNLQMSSLRAEDTAVYYCARDGLGHRDYWGQGTLVTVSS
VL: DIQMTQSPSSVSASVGDRVTITCRASQGINSWLAWYQQKPGKAPKLLIYAASSLQSGVPSRFSGSGSGTDFTLTISSLQPEDFATYYCQQANSFPFTFGPGTKVDIK
notes: also called anti-Protein A hIgG1*/*; H1xH15140P*/*-L1
Kd [1]: 0.0986 nM
koff [1]: 0.000117 s⁻¹
kon [1]: 1.19e+06 M⁻¹ s⁻¹
t½ [1]: 1.65 h
ELISA luminescent signal [2]: 10000
ELISA luminescent signal [3]: 838000
median cfu/mL after 16 h in 50% normal human serum, mAb 10 ug/mL [4]: 6e+06 cfu/mL
median cfu/mL after 16 h in 50% normal human serum, mAb 30 ug/mL [4]: 8.3e+06 cfu/mL
median cfu/mL after 16 h in 50% normal human serum, mAb 90 ug/mL [4]: 8.5e+06 cfu/mL
median cfu/mL after 16 h in 50% normal human serum, mAb 270 ug/mL [4]: 3.8e+06 cfu/mL
median cfu/mL after 16 h in 50% normal human serum, mAb 10 ug/mL [5]: 4.3e+06 cfu/mL
median cfu/mL after 16 h in 50% normal human serum, mAb 30 ug/mL [5]: 1e+06 cfu/mL
median cfu/mL after 16 h in 50% normal human serum, mAb 90 ug/mL [5]: 600000 cfu/mL
median cfu/mL after 16 h in 50% normal human serum, mAb 270 ug/mL [5]: 180000 cfu/mL
median cfu/mL after 16 h in 50% normal human serum, mAb 10 ug/mL [6]: 7.3e+06 cfu/mL
median cfu/mL after 16 h in 50% normal human serum, mAb 30 ug/mL [6]: 6.8e+06 cfu/mL
median cfu/mL after 16 h in 50% normal human serum, mAb 90 ug/mL [6]: 6.8e+06 cfu/mL
median cfu/mL after 16 h in 50% normal human serum, mAb 270 ug/mL [6]: 4.5e+06 cfu/mL
ELISA luminescent signal [7]: 5990
ELISA luminescent signal [8]: 3400
ELISA luminescent signal [9]: 1510
ELISA luminescent signal [10]: 5410
ELISA luminescent signal [11]: 2480
ELISA luminescent signal [12]: 2660
ELISA luminescent signal [13]: 3940
VH3 antibody: S. aureus blocking activity (%) [14]: 84.7%
ELISA luminescent signal [15]: 6360
ELISA luminescent signal [16]: 4270
ELISA luminescent signal [17]: 10700
ELISA luminescent signal [18]: 2460
ELISA luminescent signal [19]: 21000
ELISA luminescent signal [20]: 28400
ELISA luminescent signal [21]: 3340
ELISA luminescent signal [22]: 3030
ELISA luminescent signal [23]: 647000
